According to PMC4957108:

Key:
[1] = target: CagA-C1164S (Helicobacter pylori strain 26695) (UniProt P55980); test: AUC; sedimentation velocity, 20 °C, 10 mM HEPES pH 7.7, 150 mM NaCl, 1 mM EDTA; 5.5 μM CagA-CS, 11 μM PAR1b (39–364), alone or mixed; c(s) by SEDFIT
[2] = target: GST-CagA-1CM^W1 (Helicobacter pylori strain 26695) (UniProt P55980); test: pull-down; quantitative GST pull-down: GST-CagA on beads in a range of concentrations, fixed low concentration of PAR1b (39–364)-FLAG, GST-binding buffer with 0.01% Triton-X, 20 min at 4 °C, unbound PAR1b in the supernatant quantified, binding to GST control subtracted; apparent KD
[3] = target: GST-CagA-1CM^E (Helicobacter pylori strain 26695) (UniProt P55980); test: as above
[4] = target: GST-CagA-1CM^W2 (Helicobacter pylori strain 26695) (UniProt P55980); test: as above

Row | Substance | stoichiometry N (PAR1b per CagA) [1] | Kd [2] [µM] | Kd [3] [µM] | Kd [4] [µM]
1 | PAR1b (39–364) (from UniProt Q7KZI7-14 39-364) (domain or fragment) | 2 | – | – | –
2 | PAR1b (39–364)-FLAG (from UniProt Q7KZI7-14 39-364) (domain or fragment) | – | 0.0903 | 0.0464 | 0.106
